Patent US20230357343A1 (ASHER BIOTHERAPEUTICS, published 2023)
Numbering of substitutions follows the chain as printed. In names and notes the source's numbering stands.

Experiments:
[1] = molecular target: T1, recombinant human IL-21R, extracellular domain fused to 8xHistidine tag (generated in house) (human, UniProt Q9HBE5 20-232); assay: SPR 37 C, Fc-captured fusion
[2] = molecular target: T2, Human IL-21R (Biolegend, Catalog No. 773104) (human, UniProt Q9HBE5 20-232, limits assumed); assay: SPR 37 C, Fc-captured fusion;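 also: biacore SPR with anti-human IgG Fc surface and blank flow cell as reference, 10 min dissociation, double-referenced, 1:1 Langmuir fit with mass transport, triplicate runs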
T2 construct: Bought protein; also called IL-21 receptor
T2 sequence (Q9HBE5 20-232 limits assumed): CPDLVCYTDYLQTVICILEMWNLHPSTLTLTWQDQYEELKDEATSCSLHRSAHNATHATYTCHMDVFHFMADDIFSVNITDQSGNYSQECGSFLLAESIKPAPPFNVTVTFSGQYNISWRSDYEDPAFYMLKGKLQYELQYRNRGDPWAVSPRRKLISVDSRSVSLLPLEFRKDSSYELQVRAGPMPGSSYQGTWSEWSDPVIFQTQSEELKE

[3] = molecular target: T2, Human IL-21R (Biolegend, Catalog No. …); assay: SPR 37 C
[4] = molecular target: T1, recombinant human IL-21R, extracellular …; assay: SPR 37 C
[5] = molecular target: human CD8 on CD8+ T cells (human, UniProt P01732 22-235; P10966 22-210); assay: cell-based or functional assay
Sequence of human CD8 on CD8+ T cells (P01732 22-235, chain 1 of 2): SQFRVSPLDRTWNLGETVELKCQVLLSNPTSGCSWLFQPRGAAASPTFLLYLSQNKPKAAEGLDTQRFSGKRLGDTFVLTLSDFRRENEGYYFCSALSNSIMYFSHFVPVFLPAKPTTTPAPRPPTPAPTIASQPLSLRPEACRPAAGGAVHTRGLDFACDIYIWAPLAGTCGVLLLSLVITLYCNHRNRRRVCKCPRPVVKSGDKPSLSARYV
Sequence of human CD8 on CD8+ T cells (P10966 22-210, chain 2 of 2): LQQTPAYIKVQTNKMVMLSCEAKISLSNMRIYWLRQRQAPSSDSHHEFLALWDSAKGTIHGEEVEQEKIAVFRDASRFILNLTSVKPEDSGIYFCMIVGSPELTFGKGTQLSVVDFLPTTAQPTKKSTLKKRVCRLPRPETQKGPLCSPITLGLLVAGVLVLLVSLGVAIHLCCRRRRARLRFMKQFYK

mouse CD8 = molecular target: T3, mouse CD8 (mouse, UniProt P10300 22-175, limits assumed); assay: stated; no assay described
T3 construct: also called mouse CD8b
T3 sequence (looked up): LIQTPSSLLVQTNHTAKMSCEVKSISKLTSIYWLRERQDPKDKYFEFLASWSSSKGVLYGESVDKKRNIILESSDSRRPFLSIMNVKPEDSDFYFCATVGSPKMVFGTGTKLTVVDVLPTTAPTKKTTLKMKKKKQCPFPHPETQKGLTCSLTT

T1 sequence (Q9HBE5 other isoform, or with tags, fused parts or gaps limits assumed): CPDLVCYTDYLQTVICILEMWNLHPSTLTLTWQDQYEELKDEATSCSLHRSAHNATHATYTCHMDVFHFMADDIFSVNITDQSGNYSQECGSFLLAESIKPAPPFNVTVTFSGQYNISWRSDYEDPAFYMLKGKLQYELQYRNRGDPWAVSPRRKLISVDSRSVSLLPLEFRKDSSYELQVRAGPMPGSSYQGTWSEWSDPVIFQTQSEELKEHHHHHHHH

B1: xhCD8.1-hIL21 v2.7 (other)
chain: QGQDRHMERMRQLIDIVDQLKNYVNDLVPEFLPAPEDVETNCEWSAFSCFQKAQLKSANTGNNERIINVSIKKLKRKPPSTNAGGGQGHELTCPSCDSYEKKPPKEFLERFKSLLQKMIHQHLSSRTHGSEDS
VH: QVQLVQSGAEVKKPGSSVKVSCKASGGTFSSYAISWVRQAPGQGLEWMGGIIPGYATANYAQKFQGRVTITADESTSTAYMELSSLRSEDTAVYYCARDAAGIRLFADWGQGTLVTVSS
VL: DIQMTQSPSSLSASVGDRVTITCRASQSIYGALNWYQQKPGKAPKLLIYGASNLQSGVPSRFSGSGSGTDFTLTISSLQPEDFATYYCQSTYTAPWTFGGGTKVEIK
notes: hIgG1/kappa; IL-21 part on one heavy-chain C-terminus via (G4S)3 linker
- Kd [1]: 156 nM

B2: xhCD8.1-hIL21 v29 (other)
chain: QGQDRHMIRMRQLIDIVDQLKNYVNDLVPEFLPAPEDVETNCEWSAFSCFQKAQLKSANTGNNERIINVSIKKLKRKPPGGGGEGGGGGEGGCPSCDSYEKKPPKEFLERFKSLLQKMIHQHLSSRTHGSEDS
VH: B1 VH
VL: B1 VL
notes: as for B1
- Kd [2]: 0.094 nM
- koff [2]: 0.00119 s⁻¹
- kon [2]: 1.27e+07 M⁻¹ s⁻¹
- fold difference in IL-21R affinity against wild type IL-21 [3]: ≤ 2 fold

B3: xhCD8.1-hIL21 v2.31 (other)
chain: not shown
VH: B1 VH
VL: B1 VL
notes: as for B1
- Kd [1]: 3.4 nM

B4: xhCD8.1-hIL21 v2.33 (other)
chain: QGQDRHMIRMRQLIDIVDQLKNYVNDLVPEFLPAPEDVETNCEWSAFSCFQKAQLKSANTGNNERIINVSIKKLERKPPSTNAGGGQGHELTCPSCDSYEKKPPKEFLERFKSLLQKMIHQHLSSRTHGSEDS
VH: B1 VH
VL: B1 VL
notes: as for B1
- Kd [1]: 1.3 nM

B5: xhCD8.1-hIL21 v27 (other)
chain: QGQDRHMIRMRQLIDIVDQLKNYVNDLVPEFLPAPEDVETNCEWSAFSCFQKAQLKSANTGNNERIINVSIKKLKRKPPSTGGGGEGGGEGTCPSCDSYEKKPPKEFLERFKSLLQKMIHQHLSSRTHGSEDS
VH: B1 VH
VL: B1 VL
notes: as for B1
- Kd [2]: 0.106 nM
- koff [2]: 0.00139 s⁻¹
- kon [2]: 1.31e+07 M⁻¹ s⁻¹
- fold difference in IL-21R affinity against wild type IL-21 [3]: ≤ 2 fold

B6: xhCD8.1-hIL21 v2.32 (other)
chain: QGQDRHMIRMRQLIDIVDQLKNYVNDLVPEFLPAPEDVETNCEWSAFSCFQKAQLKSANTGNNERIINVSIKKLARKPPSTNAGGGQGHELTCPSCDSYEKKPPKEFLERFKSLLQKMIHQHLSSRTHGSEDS
VH: B1 VH
VL: B1 VL
notes: as for B1
- Kd [1]: 0.236 nM

B7: xhCD8.1-hIL21 v2.38 (other)
chain: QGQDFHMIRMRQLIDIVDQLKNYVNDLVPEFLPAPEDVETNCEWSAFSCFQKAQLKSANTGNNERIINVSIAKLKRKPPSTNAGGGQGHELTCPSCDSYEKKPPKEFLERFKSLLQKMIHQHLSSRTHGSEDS
VH: B1 VH
VL: B1 VL
notes: as for B1
- Kd [1]: 66.9 nM

B8: xhCD8.1-hIL21 v2.9 (other)
chain: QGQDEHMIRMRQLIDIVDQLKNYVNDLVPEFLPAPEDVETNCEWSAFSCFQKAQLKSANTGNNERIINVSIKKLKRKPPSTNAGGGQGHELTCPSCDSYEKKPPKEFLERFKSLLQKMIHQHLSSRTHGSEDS
VH: B1 VH
VL: B1 VL
notes: as for B1
- Kd [1]: 420 nM

B9: xhCD8.1-hIL21 v2.41 (other)
chain: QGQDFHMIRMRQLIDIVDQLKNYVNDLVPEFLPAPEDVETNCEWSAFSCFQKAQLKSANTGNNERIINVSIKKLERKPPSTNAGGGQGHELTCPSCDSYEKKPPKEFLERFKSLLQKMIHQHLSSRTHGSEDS
VH: B1 VH
VL: B1 VL
notes: as for B1
- Kd [1]: 104 nM

B10: xhCD8.1-hIL21 v2.34 (other)
chain: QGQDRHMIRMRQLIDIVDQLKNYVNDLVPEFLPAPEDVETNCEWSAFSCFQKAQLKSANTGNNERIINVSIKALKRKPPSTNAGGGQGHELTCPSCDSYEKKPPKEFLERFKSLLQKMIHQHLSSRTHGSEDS
VH: B1 VH
VL: B1 VL
notes: as for B1
- Kd [1]: 2 nM

B11: xhCD8.1-hIL21 v2.37 (other)
chain: not shown
VH: B1 VH
VL: B1 VL
notes: as for B1
- Kd [1]: 601 nM

B12: xhCD8.1-hIL21 v2.42 (other)
chain: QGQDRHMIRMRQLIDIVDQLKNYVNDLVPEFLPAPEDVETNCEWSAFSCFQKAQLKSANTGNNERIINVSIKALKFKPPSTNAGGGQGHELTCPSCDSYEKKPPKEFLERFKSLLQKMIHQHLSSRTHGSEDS
VH: B1 VH
VL: B1 VL
notes: as for B1
- binding result [4]: no binding

B13: xhCD8.1-hIL21 v2.28 (other)
chain: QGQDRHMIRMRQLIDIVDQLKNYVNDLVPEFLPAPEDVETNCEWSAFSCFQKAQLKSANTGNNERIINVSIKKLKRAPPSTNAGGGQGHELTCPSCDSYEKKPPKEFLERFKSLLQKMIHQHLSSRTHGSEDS
VH: B1 VH
VL: B1 VL
notes: as for B1
- Kd [1]: 0.693 nM

B14: xhCD8.1-hIL21 v2.39 (other)
chain: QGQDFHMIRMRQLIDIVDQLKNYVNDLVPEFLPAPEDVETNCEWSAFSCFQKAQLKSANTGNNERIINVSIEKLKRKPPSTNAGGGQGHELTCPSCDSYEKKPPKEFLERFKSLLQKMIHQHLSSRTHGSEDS
VH: B1 VH
VL: B1 VL
notes: as for B1
- Kd [1]: 614 nM

B15: xhCD8.1-hIL21 v30 (other)
chain: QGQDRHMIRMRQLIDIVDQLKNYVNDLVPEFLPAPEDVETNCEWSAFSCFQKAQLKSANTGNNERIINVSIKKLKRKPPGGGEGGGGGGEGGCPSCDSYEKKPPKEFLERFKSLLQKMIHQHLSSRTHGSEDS
VH: B1 VH
VL: B1 VL
notes: as for B1
- Kd [2]: 0.093 nM
- koff [2]: 0.00107 s⁻¹
- kon [2]: 1.16e+07 M⁻¹ s⁻¹
- fold difference in IL-21R affinity against wild type IL-21 [3]: ≤ 2 fold

B16: xhCD8.1-hIL21 v2.45 (other)
chain: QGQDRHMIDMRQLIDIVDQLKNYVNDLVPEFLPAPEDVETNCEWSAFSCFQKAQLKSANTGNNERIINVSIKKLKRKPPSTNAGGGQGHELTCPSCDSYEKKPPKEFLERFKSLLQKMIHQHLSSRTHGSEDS
VH: B1 VH
VL: B1 VL
notes: as for B1
- binding result [4]: no binding

B17: xhCD8.1-hIL21 v2.58 (other)
chain: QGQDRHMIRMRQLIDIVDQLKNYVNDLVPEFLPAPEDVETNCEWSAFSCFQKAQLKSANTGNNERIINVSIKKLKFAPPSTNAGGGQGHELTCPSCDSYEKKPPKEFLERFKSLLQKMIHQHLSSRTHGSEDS
VH: B1 VH
VL: B1 VL
notes: as for B1
- Kd [1]: 420 nM

B18: xhCD8.1-hIL21 v2.46 (other)
chain: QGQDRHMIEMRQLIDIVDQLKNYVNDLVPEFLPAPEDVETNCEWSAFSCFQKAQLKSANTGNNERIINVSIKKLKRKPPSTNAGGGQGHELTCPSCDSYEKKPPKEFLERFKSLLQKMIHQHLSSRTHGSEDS
VH: B1 VH
VL: B1 VL
notes: as for B1
- binding result [4]: no binding

B19: xhCD8.1-hIL21 v2.56 (other)
chain: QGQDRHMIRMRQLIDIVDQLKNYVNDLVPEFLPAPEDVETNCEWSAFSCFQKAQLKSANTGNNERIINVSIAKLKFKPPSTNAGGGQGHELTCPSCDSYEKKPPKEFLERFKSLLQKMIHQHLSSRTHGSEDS
VH: B1 VH
VL: B1 VL
notes: as for B1
- Kd [1]: 156 nM

B20: xhCD8.1-hIL21 v31 (other)
chain: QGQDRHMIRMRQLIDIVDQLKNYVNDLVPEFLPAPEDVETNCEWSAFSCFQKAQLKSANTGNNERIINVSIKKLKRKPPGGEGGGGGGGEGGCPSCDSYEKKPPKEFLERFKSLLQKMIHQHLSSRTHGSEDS
VH: B1 VH
VL: B1 VL
notes: as for B1
- Kd [2]: 0.094 nM
- koff [2]: 0.00113 s⁻¹
- kon [2]: 1.2e+07 M⁻¹ s⁻¹
- fold difference in IL-21R affinity against wild type IL-21 [3]: ≤ 2 fold

B21: xhCD8.1-hIL21 v2.30 (other)
chain: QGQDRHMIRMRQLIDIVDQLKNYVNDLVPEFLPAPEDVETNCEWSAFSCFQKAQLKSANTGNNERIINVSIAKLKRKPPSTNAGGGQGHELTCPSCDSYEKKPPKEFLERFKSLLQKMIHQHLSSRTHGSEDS
VH: B1 VH
VL: B1 VL
notes: as for B1
- Kd [1]: 0.419 nM

B22: xhCD8.1-hIL21 v2.36 (other)
chain: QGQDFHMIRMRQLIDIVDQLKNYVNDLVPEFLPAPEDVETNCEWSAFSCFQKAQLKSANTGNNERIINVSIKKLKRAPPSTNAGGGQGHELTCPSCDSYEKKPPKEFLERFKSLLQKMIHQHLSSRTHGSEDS
VH: B1 VH
VL: B1 VL
notes: as for B1
- Kd [1]: 125 nM

B23: xhCD8.1-hIL21 v2.63 (other)
chain: QGQDRHMIRMRQLIDRIDQLKNYVNDLVPEFLPAPEDVETNCEWSAFSCFQKAQLKSANTGNNERIINVSIKKIKRKPPSTNAGGGQGHELTCPSCDSYEKKPPKEFLERFKSLLQKMIHQHLSSRTHGSEDS
VH: B1 VH
VL: B1 VL
notes: as for B1
- STAT3 activation in human whole blood (pSTAT3, flow cytometry) [5]: > 100 fold

B24: xhCD8.1-hIL21 v2.20 (other)
chain: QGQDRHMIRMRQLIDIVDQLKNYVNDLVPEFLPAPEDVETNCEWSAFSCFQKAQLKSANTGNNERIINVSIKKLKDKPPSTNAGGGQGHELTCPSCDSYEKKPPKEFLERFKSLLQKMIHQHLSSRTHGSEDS
VH: B1 VH
VL: B1 VL
notes: as for B1
- binding result [4]: no binding

B25: xhCD8.1-hIL21 v2.64 (other)
chain: B23 chain with L13F, R16A, I17A, I74M
VH: B1 VH
VL: B1 VL
notes: as for B1
- STAT3 activation in human whole blood (pSTAT3, flow cytometry) [5]: > 100 fold

B26: xhCD8.1-hIL21 v2.65 (other)
chain: B23 chain with L13R, R16A
VH: B1 VH
VL: B1 VL
notes: as for B1
- STAT3 activation in human whole blood (pSTAT3, flow cytometry) [5]: > 100 fold

B27: xhCD8.1-hIL21 v2.43 (other)
chain: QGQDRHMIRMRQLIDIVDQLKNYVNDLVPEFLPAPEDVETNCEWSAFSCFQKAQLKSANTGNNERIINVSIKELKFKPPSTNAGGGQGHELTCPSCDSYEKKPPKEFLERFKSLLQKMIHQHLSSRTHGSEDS
VH: B1 VH
VL: B1 VL
notes: as for B1
- binding result [4]: no binding

B28: xhCD8.1-hIL21 v2.29 (other)
chain: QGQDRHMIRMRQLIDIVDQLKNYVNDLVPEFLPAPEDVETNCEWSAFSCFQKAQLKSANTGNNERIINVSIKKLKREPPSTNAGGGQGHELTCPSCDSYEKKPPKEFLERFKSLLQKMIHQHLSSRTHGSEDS
VH: B1 VH
VL: B1 VL
notes: as for B1
- Kd [1]: 2.8 nM

B29: xhCD8.1-hIL21 v2.40 (other)
chain: not shown
VH: B1 VH
VL: B1 VL
notes: as for B1
- Kd [1]: 54.7 nM

B30: xhCD8.1-hIL21 v28 (other)
chain: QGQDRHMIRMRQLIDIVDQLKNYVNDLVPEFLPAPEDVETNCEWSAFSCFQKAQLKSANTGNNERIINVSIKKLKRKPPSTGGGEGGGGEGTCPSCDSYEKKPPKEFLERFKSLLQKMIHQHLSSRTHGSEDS
VH: B1 VH
VL: B1 VL
notes: as for B1
- Kd [2]: 0.106 nM
- koff [2]: 0.00139 s⁻¹
- kon [2]: 1.31e+07 M⁻¹ s⁻¹
- fold difference in IL-21R affinity against wild type IL-21 [3]: ≤ 2 fold

B31: xhCD8v11 (antibody, V domains shown)
VH: EVQLVESGGGLVQPGGSLRLSCAASGFTFSSYAMSWVRQAPGKGLEWVSDITYAGGSTAYADSVKGRFTISRDNAKNSLYLQMNSLRAEDTAVYYCARSNAYAWDDALDIWGQGTLVTVSS
VL: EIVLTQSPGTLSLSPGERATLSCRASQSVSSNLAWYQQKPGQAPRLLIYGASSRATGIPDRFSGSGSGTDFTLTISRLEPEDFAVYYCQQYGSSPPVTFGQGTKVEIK
notes: used as targeting arm of fusions
- binding result (mouse CD8): no binding

B32: xhCD8-hIL21 v2 (other)
chain: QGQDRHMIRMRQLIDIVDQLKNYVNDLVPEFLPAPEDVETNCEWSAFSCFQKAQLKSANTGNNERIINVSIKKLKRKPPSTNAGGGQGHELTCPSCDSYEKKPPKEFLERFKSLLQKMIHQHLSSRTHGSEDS
VH: QVHLQQSGPELVKPGASVKMSCKTSGYTFTKYTMHWVKQGHEESLEWIGHFNPNNDETKYNQKFTGKATLTVDKSSTTAYMELRSLTSDDSALYYCARDGLGLRLFADWGQGTLITVSA
VL: DIQMTQSPASLSASVGETVTITCGASENIYGALNWYQRKQGKSPQLLIFGATNLADGVSSRFSGSGSDRQYSLKISSLHPDDVATYYCQNILDTPWTFGGGTKLEIK
notes: hIgG1/kappa; IL-21 part on one heavy-chain C-terminus via (G4S)3 linker; also called exemplary IL-21 polypeptide 2
- Kd [2]: 0.122 nM
- koff [2]: 0.0011 s⁻¹
- kon [2]: 8.9e+06 M⁻¹ s⁻¹
- fold difference in IL-21R affinity against wild type IL-21 [3]: ≤ 2 fold

B33: xhCD8-hIL21 v1 (other)
chain: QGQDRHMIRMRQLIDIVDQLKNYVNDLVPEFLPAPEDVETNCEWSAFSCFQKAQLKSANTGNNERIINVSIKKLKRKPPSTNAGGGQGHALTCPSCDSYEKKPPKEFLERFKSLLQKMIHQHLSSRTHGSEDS
VH: B32 VH
VL: B32 VL
notes: hIgG1/kappa; also called exemplary IL-21 polypeptide 1
- Kd [2]: 0.117 nM
- koff [2]: 0.00097 s⁻¹
- kon [2]: 8.3e+06 M⁻¹ s⁻¹
- fold difference in IL-21R affinity against wild type IL-21 [3]: ≤ 2 fold

B34: xhCD8-hIL21 v6 (other)
chain: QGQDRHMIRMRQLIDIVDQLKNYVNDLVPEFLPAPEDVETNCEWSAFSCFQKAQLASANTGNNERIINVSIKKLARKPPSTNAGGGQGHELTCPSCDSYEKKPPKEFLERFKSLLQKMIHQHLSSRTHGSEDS
VH: B32 VH
VL: B32 VL
notes: hIgG1/kappa; IL-21 part on one heavy-chain C-terminus via (G4S)3 linker; also called exemplary IL-21 polypeptide 6
- Kd [2]: 0.478 nM
- koff [2]: 0.0025 s⁻¹
- kon [2]: 5.2e+06 M⁻¹ s⁻¹
- fold difference in IL-21R affinity against wild type IL-21 [3]: ~3 fold
